Laboratory results published in patent US20250011468A1 (Novo Nordisk, published 2025).
Blank lines part the entries; values can stand above or below the binder they belong to.

Legend:
[1] = target: T1, human plasma-derived FIXa (Haematologic Technologies Inc) (human, UniProt P00740 47-191; P00740 227-461); assay: cell-based or functional assay
[2] = target: T1, human plasma-derived FIXa (Haematologic …); assay: cell-based or functional assay; remark: listed apart in the source

T1 sequence (P00740 47-191, chain 1 of 2): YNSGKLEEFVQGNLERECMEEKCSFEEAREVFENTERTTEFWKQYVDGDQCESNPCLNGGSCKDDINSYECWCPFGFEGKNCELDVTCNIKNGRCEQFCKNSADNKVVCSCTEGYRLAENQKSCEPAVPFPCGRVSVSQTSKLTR
T1 sequence (P00740 227-461, chain 2 of 2): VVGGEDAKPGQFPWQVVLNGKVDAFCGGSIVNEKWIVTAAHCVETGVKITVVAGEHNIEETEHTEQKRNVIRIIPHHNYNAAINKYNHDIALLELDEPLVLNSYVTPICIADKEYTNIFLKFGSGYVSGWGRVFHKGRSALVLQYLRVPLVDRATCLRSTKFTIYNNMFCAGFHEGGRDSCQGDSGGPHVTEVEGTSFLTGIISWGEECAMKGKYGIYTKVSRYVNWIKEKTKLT

B1: mAb4-3505 (monovalent one-armed version of mAb1-5797) (antibody, V domains shown)
VH: EVQLVQSGAEVKKPGESLRISCKGSGYRFTSYWIGWVRQMPGKGLEWMGMIDPTDSYTDYGPSFHGHVTISADKSISTAYLQWSSLKASDTAMYYCARMRIMSGAFDIWGQGTMVTVSS
VL: DIVMTQSPLSLPVTPGEPASISCRSSQSLLHSTWYNYLNWYLQKPGQSPQLLIYLGSRRASGVPDRFSGSGSGTDFTLKISRVEAEDVGVYYCMQVLHIPYTFGQGTKLEIK
Stimulation index at 474 nM OA antibody [1]: 382 fold

B2: mAb4-5337 (monovalent one-armed version of mAb1-6566) (antibody, V domains shown)
VH: EVQLVQSGAEVKKPGESLRISCKGSGYSFRPYWIGWVRQMPGKGLEWMGMIDPSDSYTDYGPSFEGHVTISADKSISTAYLQWSSLKASDTAMYYCARVRIRAGAFDIWGQGTMVTVSS
VL: DIVMTQSPLSLPVTPGEPASISCRSSQSLLHRTWYNYLNWYLQKPGQSPQLLIYLGRNRASGVPDRFSGSGSGTDFTLKISRVEAEDVGVYYCMQVLHIPYTFGQGTKLEIK
Stimulation index at 204 nM OA antibody [1]: 690 fold

B3: mAb4-5344 (monovalent one-armed version of mAb1-6592) (antibody, V domains shown)
VH: EVQLVQSGAEVKKPGESLRISCKGSGYSFRPYWIGWVRQMPGKGLEWMGMIDPSDSYTDYGPSFRGHVTISADKSISTAYLQWSSLKASDTAMYYCARVRIRAGAFDIWGQGTMVTVSS
VL: DIVMTQSPLSLPVTPGEPASISCRSSQSLLHSTWYNYLNWYLQKPGQSPQLLIYLGSRRASGVPDRFSGSGSGTDFTLKISRVEAEDVGVYYCMQVLHIPYTFGQGTKLEIK
Stimulation index at 800 nM OA antibody [1]: 916 fold

B6: mAb4-5342 (monovalent one-armed version of mAb1-6586) (antibody, V domains shown)
VH: EVQLVQSGAEVKKPGESLRISCKGSGYRFTSYWIGWVRQMPGKGLEWMGMIDPTDSYTDYGPSFHGHVTISADKSISTAYLQWSSLKASDTAMYYCARMRIMSGAFDIWGQGTMVTVSS
VL: DIVMTQSPLSLPVTPGEPASISCRSSQSLLHSTWYNYLNWYLQKPGQSPQLLIYLGKNRASGVPDRFSGSGSGTDFTLKISRVEAEDVGVYYCMQVLHIPYTFGQGTKLEIK
Stimulation index at 800 nM OA antibody [1]: 94 fold

B8: mAb4-3461 (monovalent one-armed version of mAb1-5754) (antibody, V domains shown)
VH: EVQLVQSGAEVKKPGESLRISCKGSGYSFRPYWIGWVRQMPGKGLEWMGMIDPSDSYTDYGPSFEGHVTISADKSISTAYLQWSSLKASDTAMYYCARVRIRAGAFDIWGQGTMVTVSS
VL: DIVMTQSPLSLPVTPGEPASISCRSSQRLLHSTGYNYLNWYLQKPGQSPQLLIYLGKNRASGVPDRFSGSGSGTDFTLKISRVEAEDVGVYYCMQVLHIPYTFGQGTKLEIK
Stimulation index at 1478 nM OA antibody [1]: 615 fold

B9: mAb4-3503 (monovalent one-armed version of mAb1-5796) (antibody, V domains shown)
VH: EVQLVQSGAEVKKPGESLRISCKGSGYSFRPYWIGWVRQMPGKGLEWMGMIDPSDSYTDYGPSFHGHVTISADKSISTAYLQWSSLKASDTAMYYCARVRIMSGAFDIWGQGTMVTVSS
VL: DIVMTQSPLSLPVTPGEPASISCRSSQSLLHSTWYNYLNWYLQKPGQSPQLLIYLGKNRASGVPDRFSGSGSGTDFTLKISRVEAEDVGVYYCMQVLHIPYTFGQGTKLEIK
Stimulation index at 900 nM OA antibody [1]: 239 fold

B11: mAb4-3490 (monovalent one-armed version of mAb1-5783) (antibody, V domains shown)
VH: EVQLVQSGAEVKKPGESLRISCKGSGYSFRPYWIGWVRQMPGKGLEWMGMIDPSDSYTDYGPSFRGHVTISADKSISTAYLQWSSLKASDTAMYYCARVRIRAGAFDIWGQGTMVTVSS
VL: DIVMTQSPLSLPVTPGEPASISCRSSQSLLHRTWYNYLNWYLQKPGQSPQLLIYLGRNRASGVPDRFSGSGSGTDFTLKISRVEAEDVGVYYCMQVLHIPYTFGQGTKLEIK
Stimulation index at 264 nM OA antibody [1]: 1040 fold

B13: mAb4-3486 (monovalent one-armed version of mAb1-5781) (antibody, V domains shown)
VH: EVQLVQSGAEVKKPGESLRISCKGSGYSFKPYWIGWVRQMPGKGLEWMGMIDPSDSYTDYGPSFRGHVTISADKSISTAYLQWSSLKASDTAMYYCARVRIRAGAFDIWGQGTMVTVSS
VL: DIVMTQSPLSLPVTPGEPASISCRSSQSLLHRTWYNYLNWYLQKPGQSPQLLIYLGRNRASGVPDRFSGSGSGTDFTLKISRVEAEDVGVYYCMQVLHIPYTFGQGTKLEIK
Stimulation index at 564 nM OA antibody [1]: 1220 fold

Further lines, results first:

Stimulation index at 800 nM OA antibody [1]: 580 fold
B4: mAb4-5355 (monovalent one-armed version of mAb1-6584) (antibody, V domains shown)
VH: EVQLVQSGAEVKKPGESLRISCKGSGYSFRPYWIGWVRQMPGKGLEWMGMIDPSDSYTDYGPSFRGHVTISADKSISTAYLQWSSLKASDTAMYYCARVRIRAGAFDIWGQGTMVTVSS
VL: DIVMTQSPLSLPVTPGEPASISCRSSQSLLHSTWYNYLNWYLQKPGQSPQLLIYLGKNRASGVPDRFSGSGSGTDFTLKISRVEAEDVGVYYCMQVLHIPYTFGQGTKLEIK

Stimulation index at 800 nM OA antibody [1]: 94 fold
B5: mAb4-5375 (monovalent one-armed version of mAb1-6609) (antibody, V domains shown)
VH: EVQLVQSGAEVKKPGESLRISCKGSGYRFTPYWIGWVRQMPGKGLEWMGMIDPTDSYTDYGPSFRGHVTISADKSISTAYLQWSSLKASDTAMYYCARVRIRSGAFDIWGQGTMVTVSS
VL: DIVMTQSPLSLPVTPGEPASISCRSSQSLLHSTWYNYLNWYLQKPGQSPQLLIYLGSNRASGVPDRFSGSGSGTDFTLKISRVEAEDVGVYYCMQALHIPYTFGQGTKLEIK

Stimulation index at 800 nM OA antibody [1]: 1290 fold
B7: mAb4-5357 (monovalent one-armed version of mAb1-6590) (antibody, V domains shown)
VH: EVQLVQSGAEVKKPGESLRISCKGSGYSFRPYWIGWVRQMPGKGLEWMGMIDPSDSYTDYGPSFEGHVTISADKSISTAYLQWSSLKASDTAMYYCARVRIRAGAFDIWGQGTMVTVSS
VL: DIVMTQSPLSLPVTPGEPASISCRSSQSLLHSTWYNYLNWYLQKPGQSPQLLIYLGSRRASGVPDRFSGSGSGTDFTLKISRVEAEDVGVYYCMQVLHIPYTFGQGTKLEIK

Stimulation index at 800 nM OA antibody [1]: 692 fold
B10: mAb4-5347 (monovalent one-armed version of mAb1-6582) (antibody, V domains shown)
VH: EVQLVQSGAEVKKPGESLRISCKGSGYSFRPYWIGWVRQMPGKGLEWMGMIDPSDSYTDYGPSFEGHVTISADKSISTAYLQWSSLKASDTAMYYCARVRIRAGAFDIWGQGTMVTVSS
VL: DIVMTQSPLSLPVTPGEPASISCRSSQSLLHSTWYNYLNWYLQKPGQSPQLLIYLGKNRASGVPDRFSGSGSGTDFTLKISRVEAEDVGVYYCMQVLHIPYTFGQGTKLEIK

Stimulation index at 800 nM OA antibody [1]: 133 fold
B12: mAb4-5368 (monovalent one-armed version of mAb1-6606) (antibody, V domains shown)
VH: EVQLVQSGAEVKKPGESLRISCKGSGYSFRPYWIGWVRQMPGKGLEWMGMIDPSDSYTDYGPSFEGHVTISADKSISTAYLQWSSLKASDTAMYYCARVRIRAGAFDIWGQGTMVTVSS
VL: DIVMTQSPLSLPVTPGEPASISCRSSQSLLHSTWYNYLNWYLQKPGQSPQLLIYLGSNRASGVPDRFSGSGSGTDFTLKISRVEAEDVGVYYCMQALHIPYTFGQGTKLEIK

Stimulation index at 800 nM OA antibody [1]: 567 fold
B14: mAb5-1257 (monovalent one-armed version of mAb1-9002) (antibody, V domains shown)
VH: EVQLVESGGGLVQPGRSLKLSCAASKFTFDDYAMHWVRQVPGKGLEWVSGISWRGDIIGYVDSVKGRFTISRDNAKNSLYLQLNSLRAEDTALYYCVKSYGSGSFYNAFDSWGQGTLVTVSS
VL: DIQMTQSPSTLSASAGDRVTITCRASQSISSWLAWYQQKPGKAPKFLIYKASRLERGVPSRFSGSGSGTEFSLTISSLQPDDFATYYCLEYSSYIRTFGQGTKVEIK

Stimulation index at 1600 nM OA antibody [1]: 799 fold
B15: mAb5-0900 (monovalent one-armed version of mAb1-8459) (antibody, V domains shown)
VH: EVQLVESGGGLVQPGRSLKLSCAASGFTFDDYAMHWVRQVPGKGLEWVSGISWRGDIIGYVKSVKGRFTISRDNAKNSLYLQLNSLRIEDTALYYCVKSYGSGSFYNAFDSWGQGTLVTVSS
VL: DIQMTQSPSTLSASAGDRVTITCRASKSISSWLAWYQQKPGKAPKFLIYKAERLERGVPSRFSGSGSGTEFSLTISSLQPDDFATYYCLEYSSYIRTFGQGTKVEIK

Stimulation index at 1600 nM OA antibody [1]: 320 fold
B16: mAb5-1695 (monovalent one-armed version of mAb1-9134) (antibody, V domains shown)
VH: EVQLVESGGGLVQPGRSLKLSCAASGFTFDDYAMHWVRQVPGKGLEWVSGISWKGDIIGYVDSVKGRFTISRDNAKNSLYLQLNSLRAEDTALYYCVKSYGSGSFYNAFDSWGQGTLVTVSS
VL: DIQMTQSPSTLSASAGDRVTITCRASQSISEWLAWYQQKPGKAPKFLIYKASRLDRGVPSRFSGSGSGTEFSLTISSLQPDDFATYYCLEYSSYIRTFGQGTKVEIK

Stimulation index at 1600 nM OA antibody [1]: 1020 fold
B17: mAb5-0908 (monovalent one-armed version of mAb1-8467) (antibody, V domains shown)
VH: EVQLVESGGGLVQPGRSLKLSCAASKFRFDDYAMHWVRQVPGKGLEWVSGISWRGDIIGYVDSVKGRFTISRDNEKNSLYLQLNSLRAEDTALYYCVKSYGSGSFYNAFDSWGQGTLVTVSS
VL: DIQMTQSPSTLSASAGDRVTITCRASKSISSWLAWYQQKPGKAPKFLIYKASRLERGVPSRFSGSGSGTEFSLTISSLQPDDFATYYCLEYSSYIRTFGQGTKVEIK

Maximum stimulation (fold), at 1218 nM BiAb [2]: 10800 fold
B18: mAb5-0057 (bispecific, mAb1-8768/mAb1-6723) (bispecific antibody, V domains shown)
VH 1: EVQLVESGGGLVQPGRSLKLSCAASGFTFHDYAMHWVRQVPGKGLEWVSGISWRGDIIGYVDSVKGRFTISRDNAKNSLYLQLNSLRAEDTALYYCVKSYGSGSFYNAFDSWGQGTLVTVSS
VL 1: DIQMTQSPSTLSASAGDRVTITCRASQSISSWLAWYQQKPGKAPKFLIYKASRLDRGTPSRFSGSGSGTEFSLTISSLQPDDFATYYCLEYSSYIRTFGQGTKVEIK
VH 2: EVQLVQSGAEVKKPGESLRISCKGSGYSFTTSWIVWVRQMPGKGLEWMGMIDPSDSFTSYSPSFQGHVTISADKSISTAYLQWSSLKASDTAMYYCARLHYYHSEEFDVWGQGTLVTVSS
VL 2: EIVLTQSPGTLSLSPGERATLSCRASQSVSSSYLAWYQQKPGQAPRLLIYGASSRARGIPDRFSGSGSGTDFTLTISRLEPEDFAVYYCQQFGSSRLFTFGQGTKLEIK

Stimulation index at 1600 nM OA antibody [1]: 531 fold
B19: mAb5-1528 (monovalent one-armed version of mAb1-9058) (antibody, V domains shown)
VH: EVQLVESGGGLVQPGRSLKLSCAASGFTFHDYAMHWVRQVPGKGLEWVSGISWRGDIIGYVDSVKGRFTISRDNAKNSLYLQLNSLRAEDTALYYCVKSYGSGSFYNAFDSWGQGTLVTVSS
VL: DIQMTQSPSTLSASAGDRVTISCRASQSISSWLAWYQQKPGKAPKFLIYKASRLDRGVPSRFSGSGSGTEFTLTISSLQPDDFATYYCLEYNSYIRTFGQGTKVEIK

Stimulation index at 800 nM OA antibody [1]: 732 fold
B20: mAb5-2035 (monovalent one-armed version of mAb1-9285) (antibody, V domains shown)
VH: EVQLVESGGGLVQPGRSLKLSCAASGFTFDDYAMHWVRQVPGKGLEWVSGISWRGDIIGYVKSVKGRFTISRDNAKNSLYLQLNSLRIEDTALYYCVKSYGSGSFYNAFDSWGQGTLVTVSS
VL: DIQMTQSPSTLSASAGDRVTITCRASKSISSWLAWYQQKPGKAPKFLIYKASRLERGVPSRFSGSGSGTEFSLTISSLQPDDFATYYCLEYSSYIRTFGQGTKVEIK
